According to PMC12527946:
Residue numbers refer to the chain shown, from its start. In names and notes the source's numbering stands. One block for each binder: values may come before it.

Target: VLDLR(28–797)Δ(751–779)-C-tag (VLDLR ectodomain), P98155-2
Test: ELISA
Conditions: chain shown with the change, VLDLR-ed coated on microtiter plates, background binding to BSA subtracted; for Kd: parent: 79.6 nM; for response (Absorbance (450nm)): fitted binding curve read at Clu 1.0 µM, parent: est. 0.48, read off a plot

B1: wild-type human clusterin (WT Clu), P10909 L229S; M230S; F232S; Y235S (protein)
chain: MMKTLLLFVGLLLTWESGQVLGDQTVSDNELQEMSNQGSKYVNKEIQNAVNGVKQIKTLIEKTNEERKTLLSNLEEAKKKKEDALNETRESETKLKELPGVCNETMMALWEECKPCLKQTCMKFYARVCRSGSGLVGRQLEEFLNQSSPFYFWMNGDRIDSLLENDRQQTHMLDVMQDHFSRASSIIDELFQDRFFTREPQDTYHYLPFSLPHRRPHFFFPKSRIVRSSSPSSPSEPLNFHAMFQPFLEMIHEAQQAMDIHFHSPAFQHPPTEFIREGDDDRTVCREIRHNSTGCLRMKDQCDKCREILSVDCSTNNPSQAKLRRELDESLQVAERLTRKYNELLKSYQWKMLNTSSLLEQLNEQFNWVSRLANLTQGEDQYYLRVTTVASHTSDSDVPSGVTEVVVKLFDSDPITVTVPVEVSRKNPKFMETVAEKALQEYRKKHREE
- Kd (Clu 0-2.0 µM): 989 nM

B3: wild-type human clusterin (WT Clu), P10909 A108E; L109S; E112K; P115Q; K304A; E307H (protein)
chain: B1 chain with A108E, L109S, E112K, P115Q, S229L, S230M, S232F, S235Y, K304A, E307H
- Kd (Clu 0-1.0 µM): 137 nM

B7: wild-type human clusterin (WT Clu), P10909 K123Q; R127Q; R130Q; R138Q; R282Q; R286Q; R289Q (protein)
chain: MMKTLLLFVGLLLTWESGQVLGDQTVSDNELQEMSNQGSKYVNKEIQNAVNGVKQIKTLIEKTNEERKTLLSNLEEAKKKKEDALNETRESETKLKELPGVCNETMMALWEECKPCLKQTCMQFYAQVCQSGSGLVGQQLEEFLNQSSPFYFWMNGDRIDSLLENDRQQTHMLDVMQDHFSRASSIIDELFQDRFFTREPQDTYHYLPFSLPHRRPHFFFPKSRIVRSLMPFSPYEPLNFHAMFQPFLEMIHEAQQAMDIHFHSPAFQHPPTEFIREGDDDQTVCQEIQHNSTGCLRMKDQCDKCREILSVDCSTNNPSQAKLRRELDESLQVAERLTRKYNELLKSYQWKMLNTSSLLEQLNEQFNWVSRLANLTQGEDQYYLRVTTVASHTSDSDVPSGVTEVVVKLFDSDPITVTVPVEVSRKNPKFMETVAEKALQEYRKKHREE
- Kd (Clu 0-2.0 µM): 1180 nM

Now from value to binder:

- response (Absorbance (450nm)): 0.055
B2: wild-type human clusterin (WT Clu), P10909 Y204S; Y206S; L207S; F209S; L211S; F218S; F219S; F220S; L229S; M230S; F232S; Y235S (protein)
chain: B1 chain with Y204S, Y206S, L207S, F209S, L211S, F218S, F219S, F220S

- Kd (Clu 0-1.0 µM): 109 nM
B4: wild-type human clusterin (WT Clu), P10909 V369K; A373T; T376K (protein)
chain: B1 chain with S229L, S230M, S232F, S235Y, V369K, A373T, T376K

- Kd (Clu 0-2.0 µM): 1190 nM
B5: wild-type human clusterin (WT Clu), P10909 Y125F; G132E; L135K; R138E; Q139A; E142S (protein)
chain: B1 chain with Y125F, G132E, L135K, R138E, Q139A, E142S, S229L, S230M, S232F, S235Y

- response (Absorbance (450nm)): 0.16
B6: wild-type human clusterin (WT Clu), P10909 Y204S; Y206S; L207S; F209S; L211S; F218S; F219S; F220S (protein)
chain: MMKTLLLFVGLLLTWESGQVLGDQTVSDNELQEMSNQGSKYVNKEIQNAVNGVKQIKTLIEKTNEERKTLLSNLEEAKKKKEDALNETRESETKLKELPGVCNETMMALWEECKPCLKQTCMKFYARVCRSGSGLVGRQLEEFLNQSSPFYFWMNGDRIDSLLENDRQQTHMLDVMQDHFSRASSIIDELFQDRFFTREPQDTSHSSPSSSPHRRPHSSSPKSRIVRSLMPFSPYEPLNFHAMFQPFLEMIHEAQQAMDIHFHSPAFQHPPTEFIREGDDDRTVCREIRHNSTGCLRMKDQCDKCREILSVDCSTNNPSQAKLRRELDESLQVAERLTRKYNELLKSYQWKMLNTSSLLEQLNEQFNWVSRLANLTQGEDQYYLRVTTVASHTSDSDVPSGVTEVVVKLFDSDPITVTVPVEVSRKNPKFMETVAEKALQEYRKKHREE

- Kd (Clu 0-1.0 µM): 376 nM
B8: wild-type human clusterin (WT Clu), P10909 S161R (protein)
chain 1: DQTVSDNELQEMSNQGSKYVNKEIQNAVNGVKQIKTLIEKTNEERKTLLSNLEEAKKKKEDALNETRESETKLKELPGVCNETMMALWEECKPCLKQTCMKFYARVCRSGSGLVGRQLEEFLNQSSPFYFWMNGDRIDRLLENDRQQTHMLDVMQDHFSRASSIIDELFQDRFFTREPQDTYHYLPFSLPHRRPHFFFPKSRIVR
chain 2: SLMPFSPYEPLNFHAMFQPFLEMIHEAQQAMDIHFHSPAFQHPPTEFIREGDDDRTVCREIRHNSTGCLRMKDQCDKCREILSVDCSTNNPSQAKLRRELDESLQVAERLTRKYNELLKSYQWKMLNTSSLLEQLNEQFNWVSRLANLTQGEDQYYLRVTTVASHTSDSDVPSGVTEVVVKLFDSDPITVTVPVEVSRKNPKFMETVAEKALQEYRKKHREE
